B1: Kinesin-like protein KIF23 (Homo sapiens), Q02241 (parent)
chain: MKSARAKTPRKPTVKKGSQTNLKDPVGVYCRVRPLGFPDQECCIEVINNTTVQLHTPEGYRLNRNGDYKETQYSFKQVFGTHTTQKELFDVVANPLVNDLIHGKNGLLFTYGVTGSGKTHTMTGSPGEGGLLPRCLDMIFNSIGSFQAKRYVFKSNDRNSMDIQCEVDALLERQKREAMPNPKTSSSKRQVDPEFADMITVQEFCKAEEVDEDSVYGVFVSYIEIYNNYIYDLLEEVPFDPIKPKPPQSKLLREDKNHNMYVAGCTEVEVKSTEEAFEVFWRGQKKRRIANTHLNRESSRSHSVFNIKLVQAPLDADGDNVLQEKEQITISQLSLVDLAGSERTNRTRAEGNRLREAGNINQSLMTLRTCMDVLRENQMYGTNKMVPYRDSKLTHLFKNYFDGEGKVRMIVCVNPKAEDYEENLQVMRFAEVTQEVEVARPVDKAICGLTPGRRYRNQPRGPVGNEPLVTDVVLQSFPPLPSCEILDINDEQTLPRLIEALEKRHNLRQMMIDEFNKQSNAFKALLQEFDNAVLSKENHMQGKLNEKEKMISGQKLEIERLEKKNKTLEYKIEILEKTTTIYEEDKRNLQQELETQNQKLQRQFSDKRRLEARLQGMVTETTMKWEKECERRVAAKQLEMQNKLWVKDEKLKQLKAIVTEPKTEKPERPSRERDREKVTQRSVSPSPVPLSSNYIAQISNGQQLMSQPQLHRRSNSCSSISVASCISEWEQKIPTYNTPLKVTSIARRRQQEPGQSKTCIVSDRRRGMYWTEGREVVPTFRNEIEIEEDHCGRLLFQPDQNAPPIRLRHRRSRSAGDRWVDHKPASNMQTETVMQPHVPHAITVSVANEKALAKCEKYMLTHQELASDGEIETKLIKGDIYKTRGGGQSVQFTDIETLKQESPNGSRKRRSSTVAPAQPDGAESEWTDVETRCSVAVEMRAGSQLGPGYQHHAQPKRKKP
partner: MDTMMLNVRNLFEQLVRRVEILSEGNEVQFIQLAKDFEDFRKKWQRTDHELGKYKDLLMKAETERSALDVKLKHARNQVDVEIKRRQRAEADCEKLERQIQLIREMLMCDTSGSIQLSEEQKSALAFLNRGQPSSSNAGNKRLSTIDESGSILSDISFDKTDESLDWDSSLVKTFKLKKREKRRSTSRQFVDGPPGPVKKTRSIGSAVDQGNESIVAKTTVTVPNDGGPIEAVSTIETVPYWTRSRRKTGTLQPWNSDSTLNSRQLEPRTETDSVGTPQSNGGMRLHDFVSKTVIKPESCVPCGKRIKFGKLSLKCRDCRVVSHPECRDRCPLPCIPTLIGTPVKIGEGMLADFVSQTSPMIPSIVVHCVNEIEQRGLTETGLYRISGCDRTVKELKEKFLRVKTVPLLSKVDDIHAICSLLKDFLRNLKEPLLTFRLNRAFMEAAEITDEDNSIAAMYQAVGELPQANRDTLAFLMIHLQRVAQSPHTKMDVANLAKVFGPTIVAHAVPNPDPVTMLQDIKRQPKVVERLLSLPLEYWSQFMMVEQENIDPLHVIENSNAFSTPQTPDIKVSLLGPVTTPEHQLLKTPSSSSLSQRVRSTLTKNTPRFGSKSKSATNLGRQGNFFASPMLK
B2: ADP-ribosylation factor 6 (Homo sapiens), P62330 (parent)
chain: MGKVLSKIFGNKEMRILMLGLDAAGKTTILYKLKLGQSVTTIPTVGFNVETVTYKNVKFNVWDVGGQDKIRPLWRHYYTGTQGLIFVVDCADRDRIDEARQELHRIINDREMRDAIILIFANKQDLPDAMKPHEIQEKLGLTRIRDRNWYVQPSCATSGDGLYEGLTWLTSNYKS
partner: B1 chain
B3: Kinesin-like protein KIF23 (Homo sapiens), Q02241 (parent)
chain: B1 chain

Variants of: B1
Details: with rgap1_human RACGAP1, Q9H0H5

| effect of a mutation on the interaction | Variant |
| --- | --- |
| increasing interaction | S814A |

Variants of: B1
Details: with rgap1_human RACGAP1, Q9H0H5
Remark: another data set of the same source

| effect of a mutation on the interaction | Variant |
| --- | --- |
| increasing interaction | V890A |

Variants of: B2
Details: with kif23_human KIF23, Q02241

| effect of a mutation on the interaction | Variant |
| --- | --- |
| disrupting interaction | T27N |

Variants of: B3
Details: with arf6_human ARF6, P62330

| effect of a mutation on the interaction | Variant |
| --- | --- |
| disrupting interaction | T873A |

Variants of: B3
Details: with arf6_human ARF6, P62330
Remark: another data set of the same source

| effect of a mutation on the interaction | Variant |
| --- | --- |
| decreasing interaction | T873A |

Variants of: B3
Details: with arf6_human ARF6, P62330
Remark: another data set of the same source

| effect of a mutation on the interaction | Variant |
| --- | --- |
| disrupting interaction | E864A |

Variants of: B3
Details: with arf6_human ARF6, P62330
Remark: another data set of the same source

| effect of a mutation on the interaction | Variant |
| --- | --- |
| disrupting interaction | Q863A |

Variants of: B3
Details: with arf6_human ARF6, P62330
Remark: another data set of the same source

| effect of a mutation on the interaction | Variant |
| --- | --- |
| decreasing interaction | Q863A |

Variants of: B3
Details: with arf6_human ARF6, P62330
Remark: another data set of the same source

| effect of a mutation on the interaction | Variant |
| --- | --- |
| disrupting interaction | E896A |

Variants of: B3
Details: with arf6_human ARF6, P62330
Remark: another data set of the same source

| effect of a mutation on the interaction | Variant |
| --- | --- |
| disrupting interaction | V890A |

Variants of: B3
Details: with arf6_human ARF6, P62330
Remark: another data set of the same source

| effect of a mutation on the interaction | Variant |
| --- | --- |
| decreasing interaction | V890A |

Variants of: B3
Details: with arf6_human ARF6, P62330
Remark: another data set of the same source

| effect of a mutation on the interaction | Variant |
| --- | --- |
| disrupting interaction | K877A |

Variants of: B3
Details: with arf6_human ARF6, P62330
Remark: another data set of the same source

| effect of a mutation on the interaction | Variant |
| --- | --- |
| decreasing interaction | K877A |

Variants of: B3
Details: with arf6_human ARF6, P62330
Remark: another data set of the same source

| effect of a mutation on the interaction | Variant |
| --- | --- |
| disrupting interaction | F892A |

Variants of: B3
Details: with arf6_human ARF6, P62330
Remark: another data set of the same source

| effect of a mutation on the interaction | Variant |
| --- | --- |
| disrupting interaction | Y858A |

Variants of: B3
Details: with arf6_human ARF6, P62330
Remark: another data set of the same source

| effect of a mutation on the interaction | Variant |
| --- | --- |
| disrupting interaction | L860A |

Variants of: B3
Details: with arf6_human ARF6, P62330
Remark: another data set of the same source

| effect of a mutation on the interaction | Variant |
| --- | --- |
| decreasing interaction | L860A |

Variants of: B3
Details: with arf6_human ARF6, P62330
Remark: another data set of the same source

| effect of a mutation on the interaction | Variant |
| --- | --- |
| disrupting interaction | L794A |

Variants of: B3
Details: with arf6_human ARF6, P62330
Remark: another data set of the same source

| effect of a mutation on the interaction | Variant |
| --- | --- |
| disrupting interaction | T779A |

Variants of: B3
Details: with arf6_human ARF6, P62330
Remark: another data set of the same source

| effect of a mutation on the interaction | Variant |
| --- | --- |
| decreasing interaction | T779A |

Reference: IntAct's records for PubMed 22580824
